# Measured values published in the nanobody polyreactivity screen of Harvey et al. (2022).
# Assay: yeast display, Sf9 membrane polyspecificity reagent, FACS + sequencing; frameworks hold sequencing errors
# Procedure, shortened: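 After 36–48 hours of galactose induction, yeast (Saccharomyces cerevisiae BJ5465) displaying a synthetic nanobody library were stained at 4 °C for 1 hour with 10% biotinylated, detergent-solubilized Sf9 membrane reagent. Streptavidin microbeads enriched the stained cells before FACS sorting into low and high (top ~1%) gates on anti-HA and streptavidin fluorescence. Each clone's polyreactivity label reflects its gate of origin.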
row,Sequence,polyreactivity (PSR sort gate)
1,QVQLVDSGGGLVQAVGSLRLSCAASGITFDEYAMGWYRQAPGKERELVAAISVSGGDTYYADSVKGRFTISRDNAKNNVYLQMNSLKPEDTAVYYCNARWGTPYYIQDFDYWGLGTQVTVSS,low polyreactivity
2,QVQLVESGGGLVQAGGSLRLSCAASGSTFSLYAMGWYRQAPGKERELVAAISSSGGSTYYADYVKGRFTISRDNAKNTVYLQMNSLKPEDTAVYYCAAYRVGSYDYWGQGTQVTVSS,high polyreactivity
3,QVQLVESGGGLVQAGGSLRLSCAASGSTFLGNVMGWYRQAPGKERELVAAITSTGGNTYYADSVKGRFTISRDNAKNSVYLQMNSLKPEDTAVYYCAKKYVWTHNYWGQGTQVTVSS,low polyreactivity
4,QVQLVESGGGLVQAGGSLRLSCAASGSIFNRYAMGWYRQAPGKERELVAAIRSGDNTNYADSVKGRFTISRDNAKNTVYLQMNSLKPEDTAVYYCAIRTYYRSRTVGWGKMDYWGQGTQVTVSS,high polyreactivity
5,QVQIVESGGGLVQAGGSLRLSCAASGIIFYYYAMGWYRQAPGKERELVAAITKSGGSTYYADSVKGRFTISRDNAKNTVYLQMNSLKPEDTAVYYCAAEYSYYPLVGLDYWGQGTQVTVSS,low polyreactivity
6,QVQLVESGGGLVQAGGSLRLSCAASGSIFGYYAMGWYRQAPGKERELVAAIRVSGGRTYYADSVKGRFTISRDNAKNTVYLQMNSLKPEDTAVYYCAKSLIPAYEYWGQGTQVTVSS,high polyreactivity
7,QVQLVESGGGLVQAGGSLRLSCAASGIIFAYNAMGWYRQAPGNERELVAAITSGTSTHYADSVKGRFTISRDNAKNTVYLQMNSLKPEDTAVYYCAKVYSYFNPRTYKPSFAGSDYWGQGTQVTVSS,low polyreactivity
8,QVQLVESGGGLDQAGGSIRLSCAASGFIYDGNAMGSYRQAPGKERELVAAISSGGGTTYYADSVKGRFTISRDNAKNTVYLQMNSLKPEDTAVYYCADDALSDEYDYWGQGTQVTVSS,low polyreactivity
9,QVQLVESGGGLVQAGGSLRLSCAASGSNFYQYAMGWYRPAPRKERELVAAISVRAGITYYADSVTGRFTISRDNAKYTVYLQMNSLKPEDTAVYYCAKDHWTTSYDEGDYWGQGTQVTVSS,low polyreactivity
10,QVQLVESGGGLVQAGCSLRLSCAASGRTFRSDNSMGWYRQSPGKQRELVAAISQGGGTYYADSVKGRFTISRDNAKNTVYLLMNSLIPEDTAVYYCARDAFYADPSLWYYTYDFWGQGTQETVSS,low polyreactivity
11,QVQLVESGGGLVQAGGSLRLSCAASGSIFDIYAMGWYRQAPGKERELVATITWDGVSTYYADSVKGRFTISRDNAKNTVYLQMNSLKPEDTAVYYCNVVVRYPSAYDYWGQGTQVTVSS,high polyreactivity
12,QVQLVESGGGLVHAGGSLRLSCAASGSIFTWNGMGWYRQAPGKERELVAGMSYSGGITYTDSVKGRFTISRDNAKNTVYLQMNSLKPEDTAVYYCNARSKVAYYRHYYWGQGTQVTVSS,low polyreactivity
13,QVQLVESGGGLVQAGGSLRLSCAASGNIFPYYAMGWYRQAPGKERELVASITWSGGRTYYADSVKGRFTISRDNAKNTVYLQMNSLKPEDTAVYYCAKEHHRTGQGRDYDYWGQGTQVTVSS,low polyreactivity
14,QVQLVESGGGLVQAGGSLRLSSAASGRIFVYNAMGWYRQAPGKERELVAGISWSGARSHYADSVKGRFTISRDNAKKTVYLLMNSLKPEDTAVYYCAAYPQYRSFQYDYWGQGTQVTVSS,high polyreactivity
15,QVQLVESGGGLVQAGGSLRLSCAASGRIFSAYVMGWNRQAPGKERELVAAISSGGTRTSYADSVKGRFTISRDNAKNTVYLQMNSLTPEDTAVYYCAAARFYRSAYGYWGQGTQVTVSS,high polyreactivity
16,QVQLVETGGGLFQAGGTLLLSCAASGRIFIRNALVWYRQAPGKEWELVAAIRTRDASTYYADSVKGRFTISRDIAKNTVYLLMNSLKPVDTAVYYCNADTTWPSSSGPTTFGQGDYWGQGTQVTVSS,low polyreactivity
17,QVQLVESGGGLVQAGGSLRLSCAASGSIFYSNAMGWYRQAAGKERELVAAISVSGVSTYYADSVKGRFTISRDTAKNTVYLQMNSLKPEDTAVYYCAADTGYRYDDYYWWGGEYDYWGQGTQVTVSS,low polyreactivity
18,QVQLVESGGGLVQAGGSLRLSCAASGSIFTAYAMGWYRQAPGKERELVAAITTSGDSTYYADSVKGRFTISRDNAKNTVYLQMNSLKPEDTAVYYCAAEYYSYRITTYDYWGQGTQVTVSS,high polyreactivity
19,QVQLVESGGGLVQAGGSLRLSFAASGSTFNVHAMGGYRQAPGKERELVAAITSSGGSTNYADSVKGRFTISRDTAKNSVYLQLNSLKPEDTAVYYCAADAIYFSRLNLGYDYWGQGTQVTVSS,low polyreactivity
20,QVQLVESGGGLVQAGGSLRLSCAASGLTFNFNAMGWYRQAPGKERELVAAISYRAGSTYYADSVKGRFTISRDNAKNSVYLQMNSLKPEDTAVYYCAADGYYYLKSGTYVSDYWGQGTQVTVSS,low polyreactivity
21,QVQLVESGGGLVQAGGSLRLSCAASGSTFWDYDMGWYRQAPGKERELVASIRNGGSTNYADSVKGRFTISRDNAKNTVYLQMNSLKPEDTAVYYCAADRQPVYPSLGVYWDYGHDYWGQGTQVTVSS,low polyreactivity
22,QVQLVESGGGLVQAGGSLRLSCAASGFTFYSYTMGWYRQAPGKERELVAAISGRSVRTYYADSVKGRFTISRDNAKNTVYLQMNSLKPEDTAVYYCARAYYWRTSWYNYWGQGTQVTVSS,high polyreactivity

row,Sequence,polyreactivity (PSR sort gate)
1,QVQLVESGGGLVQAGGSLRLTCAASGGIFSYNAMGWYRQAPGKERELVAAISDSSTRTYYADSVKGRFTISRDNAKNTVYLQIKSLKPEDTAVYYCAARHSRTRHTSDYWGQGTQVTVSS,high polyreactivity
2,QVQLVESGGGLVQAGGSIRLSCAASASIFQSYAMGWYRQAAGKERELVATITYSAGSTYYSDSVKGRFTITRDNAKNTVYLQMNSLKPEDTAVYYCDARRRGTIKTRMDYWGQGTQVTVSS,high polyreactivity
3,QVQLVESGGGLVQAGGSLRLSCAASGSIFAKYAMGLYRQAPGKERELVAGITRGGSTYYADSVKGRFTISRDNAKNTVYLQMNSLKQEDTAVYYCAAKRHTSLYVYYYWGLGTQVTVSS,high polyreactivity
4,QVQLVESGGGLVQAGGSLRLSCAASGITFQHYAMGWYRQAPGKERELVAAITWRGSNTYYADSVKGRFTISRDNAKNTVYLQMNSLKPEDTAVYYCAAVLSLRSRNYWGHGTQVTVSS,high polyreactivity
5,QVQLVESGGGLVQAGGSLRLSCAASGSTFTYYAMGWYRQAPGKERELVAAITGRGGRTYYADSVKGRFTISRDNAKNTVYLQMNSLKPEDTAVYYCARYPSSDTYWTKYDYWGQGTQVTVSS,high polyreactivity
6,QVQLVESWGGLVQAGGSLRLSCAASGRTFIRYTMGWYRQAPGKERELVASIRYSGASTSYADSVKGRFTISRDNAKNTVYLQMNSLKPEDTAVYYCAADRYWWWYNSPYSGMDYWGQGTQVTVSS,high polyreactivity
7,QVQLVESGGGLVQAGGSLRIRCAASGRIFDTYAMGWYRQAPGKEREFVATISWDSASTYYADSVKGRFTISRDNAKNTVYLQMNSLKPEDTAVDYCAAGGSSSWAFNYWGQGTQLTVSS,low polyreactivity
8,QVQLVESGGGLVQAGGSLRLSCAAYGITFPVNAMGWYRQAPGKERELVAGIYFSGDSTYYADSVKGRFTISRDNAKNTVYLQMKSLKPEDTAVYYCAAEVWAFVYYFEYSTMYYWGHGTQVTVSS,low polyreactivity
9,QVQLVESGGGLVQAGGSLRLSCAASGFIFYYYAMGWYRQAPGKERELVAVLAVSGSSTYYADSEKGRFTISRDNAKNIVFLQKNSLKPEDTAVYYCNADFWPYTGKYDYWGQGTQVTVSS,low polyreactivity
10,QVQLVESGGGLVQAGGSLRLSCAASGSISVYYAMGRYRQAPGKERELVASIRYTGGRTYYADSVKGRFTISRDNAKNTVYLQMNSLKPEDTAVYYCAADVKRDRVWGGDYWGHGTQVTVSS,low polyreactivity
11,QVQHVESGGGLVQAGGSLRLSCAASGSTFTWYTMGWYRQAPGKERELVATIRKRGGSTYYADSVKGRFTISRDNAKNTVYLQMNSLKPEDTAVYYCAAVYKVHSGLYEYWGQGTQVTVSS,high polyreactivity
12,QVQLVESGGGLVQAGGSLRLSCAASGRIFHYYAMGWYRQAPGKERELVAAISNTDGSTYYADSVKGRFTISRDNAKYTVYLQMNSLKPEDTAVYYCAADSLGALYRGNYPYGYWGQGTQVNVSS,high polyreactivity
13,QVQIVESGRGLVQAGGSLRLSCAPSGFTLGFFAMGWYRQAPGKERELVAAINWRGGSTYYADSVKVRFTISRDNAKNTVYLQMNSLKPEDTAVYYCNRVYRPSRYDYWGQGTQVTVSS,high polyreactivity
14,QVQLVESGGGLVHAGGSLRLSCDASGIIFFIYTMGWYRQAPGKERELVAVITRGGRTNYADSVKGRFTISRDNAKNTVYLQMNSLKPEDTAVYYCAAKGSRSYYWGQGTQVNVSS,high polyreactivity
15,QVQLVESGGGLVQAGGSLRLSCAASGFIFYRYPMGWYRQAPGKERELVAAISYSGGSTYYADSVKGRFTISRDNAKNTVYLQMNSLKQEDTAVYYCARRQVYKFRRYDYWGQGTQVTVSS,high polyreactivity
16,QLQREESGGGLVQAGGSLRLSCAASGRTFTRYAMGWYRQAPVKERELVAAISGGGGSTYYADSVKGRFTISRDNAKITVYLQINSLKPEDTAVYYCNAAARVYSFDYWGQGTQVTVSS,low polyreactivity
17,QVQLVESGGGLVQAGGSLRLSCAASGSIFAYYAMGWYRQAPGKESELVADITSSGGITYYADSVKGRFTISRDNAKNTVYLQMISLKPEDTAVYYCNADSWAIGGGSYPYDYWGHGTQVTVSS,low polyreactivity
18,QLQLVESGGGLVQAGGSLRLSCAASGSTFPEYVMGWYRQAPAKERELVAAITRRGGRTYYADSVKGRFTISRDNAKNTVYFQMNSLKPEDTAVYYCAAKSAVVVGMDSWGQGTQVTVSS,high polyreactivity
19,QVQLVESGGGLVQAGGSLRLICAASGSTFSDNAMGWYRPAPGKERELVAAISRSGGSTYYADSVKGRFTLSRDNANNTVYLQMNSLKPEDTAFYYGATKSVLTGYDSWGQGTKVTVSS,high polyreactivity
20,QVQLVESGRGLVQAGVSLRLSCASSGSTFTLNVMGWYRKAPVKERELVAGFSKRGGNTYYADSVKGRFTISRDYAKNTVYLQMNRLKPEDTAVYFCAKRQGVGYGYYYLGQGTQVTVSS,high polyreactivity
21,QVQLVESGGGLVQAGGSLRLSCAASGRTFGYYAMGWYRQAPGKERELVAAISRSGGSTYYADSVKGRFTISRDNAKNTVYLQMNSLKPEDTAVYYCAVKGYVKSDYWGQGTQVTVSS,high polyreactivity
